# Data from the nanobody polyreactivity screen of Harvey et al. (2022).
# Assay: yeast display, Sf9 membrane polyspecificity reagent, FACS + sequencing; frameworks hold sequencing errors
# How it was run: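 In a synthetic yeast display library (Saccharomyces cerevisiae BJ5465), nanobody expression was induced with galactose for 36–48 hours. FACS gates were set low and high (top ~1%) using anti-HA fluorescence for expression and streptavidin fluorescence for binding of the Sf9 membrane reagent. Each polyreactivity label is drawn from the gate of origin.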
row,Sequence,polyreactivity (PSR sort gate)
1,QVQLVESGGGLVQAGGSLRISCAASGNAMGWYRQAPGKERELVAVITGGGSTYYADSVKGRFTISRDNAKNTVYLQMNSLKPEDTAVYYCAAKGPYYKSSRTGDYWGQGTQVTVSS,low polyreactivity
2,LVQLQESGGCLVLAGGGLRLSCAASGNIFTYVIMGWYRQPPGKERELVAAITYGTITNYADSVKGPFTISRDNAKNTVYMQMNCLKPEDTAVYHCAVQSPRIEPRLYYWGQGTQVTVSS,high polyreactivity
3,QVQLVESGVGLVQAGGTLRLSCAASGSIFDPYAMGWYRQAPGKERELVAAITYSVGGTTYYADSVKGRFTISRDNAKNTVYLQMNSLKPEDTAVYYCAAEWWGNPFDYWGQGTQVTVST,high polyreactivity
4,QVQLVESGGGLVQAGGSLRLSCAATGFIFPKYAMGWYSKAPGKERELVAAISKSGGRTYYADSVKGRFTISRDNAKNTVYLQMNSLKPEDTAVYYCAAEFTYEGDSWGQGTQVTVSS,high polyreactivity
5,QVQLVESGGGLVQAGGSLRLSCAASGFTFFTNAMGWYRKAPGKEREFVAAISGSGSRTYYADSVKGRFTISRDNAKNTVYLQMNSLIPEDTAVYYCAARVRGVYPFDYWGQGTQVTVSS,high polyreactivity
6,QVQLVESGGGLVQAGGSLRLSCAASGLNFSHYTMGWYRQAPGKERELVAAITSSGGSTYYADSVKGRFTISRDNGKNTVYLQMNSLKPVDTAVYYCNKALTSKDYPVRTVERDYWGQGTQVTVSS,low polyreactivity
7,QVQLVESRGGLVQAGGSLRLSCAASGSIFLYYARGRSRQSPGKERELVAAIRRGGNTNYADSVKGRFTISRDNAKNTVYLQLNSLKPEDTAVYYCAAAQYSRYSRVPNYYAGTYYYWGQGTQVTVSS,low polyreactivity
8,QVQLVESGGGLVQAGGSLRLSCAASGFIFENNAKGWYRQAPGKERELVAGITSGGGSTYYADSVKGRFTISRDNAKNTVYLQMNSLKPEDTAVYYFNKLYTRVGFTFEYWGQGTQVNVSS,low polyreactivity
9,QVQLVESGGCLVQAGGSLRLSCASSGIIIRKYAMGWYRQQPGKERELVAAITTRGSRTYYADSVKGRFTISRDNAKNTVYLQMNSLKPEDTAVYYCASDRYTVRMDYWGQGTQVTVSS,high polyreactivity
10,QVQLVESGGGLVQAGGSLRLSCAASGSIFLDYAMGWYRQAPGKERELVAGITISGGSTYYADSVKGRFTISRDNAKNTVYLQMNRLKPEDTAVYYCSKVAPRSSSSQEYYYWGQGTQVTVSS,low polyreactivity
11,QVQLVESGGGLVQAGGSLRLSCAASGFTITRNTMGWYRQAPGKERELVAAITRGGSTNYADSVKGRFTISRDNAKNSVYLQMNSLKPEDTAVYYCNKGRNVVLVRTADDYWGQGTQVTVSS,low polyreactivity
12,QVQLVESGGGLVQAGGSLRLSCAASGSIFEVYAMGWYRQAPGKERELVAAISGNGGSTYADSVKGRFTISRDNAKNTVYLQMNSLKPEDTAVYYCAAVPYGYGLASDSIFDYWGQGTQVTVSS,high polyreactivity
13,QVQLVESGGGLVQAGGSLPLSCAASGRTFWAYAMGWYRQAPGKERELVAAITTSGGSTNYADSVKGRFTISRDNAKNTVYLQMNSLKPEDTAVYYCNADPTYHVVNGVGYWGQGTQVTVSS,low polyreactivity
14,QVQLVESGGGLVQAGGRLSLSCSASGSIFEQKAMGWYRKAPGKEREFVATISDGGGTYYADSVKGRFTISRDNAKNTVYLQINSLKPEDNAVYYCAATFGGSVFVYDYWGQGTQVTLSS,low polyreactivity
15,QVQLVESGGGLVQAGGSLRLSCAASGSTFTWNDMGRYRQAPGKERELVAGISLSAGSTYYADSVKGRFTISRDNAKNTDYLQMNSLKPEDTAVYYCNADPGGPDTYEEHDYWGQGTQVTVSS,low polyreactivity
16,QVHLVESGGGLVQAGGSLRLSCSASGITFLTYTMGWYRQEPGKERELVASIRYSTGSTYYADSVKGRFTISRDNAKNTVYLQMNSLKPEDTAVYYCNDYSSYIKYDYWGQGTQVTVTS,high polyreactivity
17,QVQLVESGGGLVQAGGSLRLSCAASGSTLGRNAMVWYRQAPGKERELVAAITTSGGSTYYADSVKGRFTISRDNAKNTVYLQMNSLKPEDTAVYYCAARTGYRNYGYWGQGSQVTVSS,high polyreactivity
18,QVQLQESGGGLVQAGGSLRLSCAASGTISDRAGMGWYRQAPAKNAIVATIDRGTNTNYADSVKGRFTISRDNAKNTVYLQMNSLKPEDTAVYNCAAVGRYYIYLDYWGQGTQVTVSS,low polyreactivity
19,QVQLVESGGGLVQAGGSLRLSCAASGRIFGRYAMGWYRQAPGKERELVAAISRRGGTTYYADSVKGRFTISRDNAKNTVYLQMNSLKPEDTAVYYCNADTYGYGFDYWGQGTQVTVSS,high polyreactivity
20,QVQLVESGGGLVQAGGSLRLSCAASGGIFIKYAIGWYRPAPGKERELVAAITYSGGSTYYADSVKGRFTISRDNAKNTVYLQMNCLKPEDTAVYYCAADTLRQYDYEYWGQGTQVTVSS,high polyreactivity
21,QVQLVESGGGLVQAGGSLRLSCAASGITFSYNAMGWYRPAPGKERELVAAIRVGDGSTYYADSVKGRFTISRDNAKNTVYLQMNSLNPEDTAVYYCNARYLRLRYPYTDEYNYWGQGTQVTVSS,low polyreactivity
22,QVQLVESGGGLVQAGGSLRLSCAASGRIFFVNTMGWYRQAPGNERELVATLSWSGGSTYYADSVKGRFTISRDNAKNTVYLQMNSLKPEDTAVYYCAAVGYTTYRRYDYWGQGTQVTVSS,low polyreactivity

row,Sequence,polyreactivity (PSR sort gate)
1,QVQRVESGGGLVQAGGSLRLSCAATGFTFSWYVMGWYRQAPGKERELVATITNRGGSTYYSDSVKGRFTISRDNAKNTVYLQMNSLKPEDPAVYYCAARKKGSRVGFDYWGQGTQVTVSS,high polyreactivity
2,QVQLVESGGGLVQAGRSIRLTCAASGITFSEYAMGWYRQAPGKEREFVAAISRRGGSTYYADYVKGRFTISSDNAKNTVYLQMNSLKAEDTAVYYCNRRYVTFRFEQDYDYWGQGNQVTVSS,low polyreactivity
3,QVQLVESGGRLVQAGGSLRLSCAAAAITFYLYAMGRYRQAPGKERELVAAISSSGGSTYYADSVKGRFTISRDNAKNTVYLQINSLKPEDTAVYYCNARRRTVPYRYDYWGQGTQVTVSS,high polyreactivity
4,QVQLVESGGGLVQAGGSLRLSCAASGSIFRINVMGWYRQAPGKERELVAAISYSGGRTYYADSVKGRFTISRDNAKKTVYLQMNSLKPEDTAVYYCAATRSNFIYDYWGQGTQVTVSS,high polyreactivity
5,QVQLVESRGGLVQAGGSLRLSCAASGIIFFKYAMGWYRQAPGKERELVAAISIDGSTNYADSVKGRFTISRDNAKNTVYLQMNSLKPEDTAVYYCNAKRYGFFYWQGDYWGQGTQVTVSS,low polyreactivity
6,QVQLVESGGGLVQAGGSLRLSCAASGSTFVGNAMGSYRQAPGKERELVATISNSGGRTYYADSVKGRFTISRDNAKNPVYLQRNSLKPEDTAVYYCPADHPAFGPGYSFDYWGQGTQVTVSS,low polyreactivity
7,QVQLVESGGGLVQAGGSLRLSCAASGRTFASYAMGWYRQAPGKERELVAGITSGGNTYYADSVKGRFTISRDNAKNTVYLQMNSLKPEDTAVFYCAADGVYKGWPTHYDYWGHGTQVTVSS,high polyreactivity
8,QVQLVESGGGLVQAGGSLRLSCAASGFIFYSYAMGWNRQAPGKERELVADISRSGSTNYADSVKGRFTISRDNAKNTVYLQMNSLKPEDTAVYYCNKGYHSWSRLSQFGWSYDYWGQGTQVTVSS,high polyreactivity
9,QVQLVESGGGLVQAGGSLRLSCAASGRTFVNYAMGWYRQAPGKERELVAAITSDGSTSYADSVKGRFTISRDNAKNTVYLQMNSLKPEDTAVYFCAKDFFEHSPVSHTYSSSKYDYWGQGTQVTVSS,low polyreactivity
10,QVQLVESGGGLVQAGGSLRLSCAASGSTFYWYALGWYRQAPGKERELVASITWIGGSNTYYADSVKGRFTISRDNAKNTVYLQMNSLKPEDTAVYYCAADPGVYGQYLYSPWGYDYWGQGTQVTVSS,high polyreactivity
11,QVQLVESGGGLVQARGSLRLSCAASGRTLTYNAMGWYRPAPGKERELVAVISSRGDTTYYADSVKGRFTISRDNAKNTVYLQRNSLKPEDTAVYFCNSALSGRRSYYYWGQGTQVTVSS,low polyreactivity
12,QVHLEESGGGLVQAGGSLRLSCAASGFIFNAYAMGWYRQAPGKERELVAAISSSGGRTYYADSVKGRFTISRDNAKNTVYLQMNSLKPEVTAVYYCNTYRYYQYYRSMDYWGQGTQVTVSS,high polyreactivity
13,QVQLVESGGGLVQAGGSLRLSCAASGSILYGYAMGWYRQAPGKERELYASITSDGSSNYADSVKGRFTISRDNAKNTVYFQMNSLKPEDTAVYYCAADVRLIWSASLTTSKYDYWGQGTQVTVSS,low polyreactivity
14,QVQLVESGGGLVQARGSLRLSCAASGRIFSYNDMGWYRQAPGTERELVAVISIRGGGTYYADSVKGRFTISRDNAKNTVYFQMNSLKPEDTAVYYCNAEYVTFGEEYGYWGQGTQVTVSS,low polyreactivity
15,QVQLVESGGGLVQAGGSLRLSCAASGSTFAYYAMGWYRQAPGKERELVAAISVSGGRTYYADSVKGRFTISRDNAKNTVYLQMNSLKPEDTAVYYCAARLWRDYYWGQGTQVTVSS,high polyreactivity
16,QVQLVESGGGLVQAGGSLRLSCAASGRIFYHNVMGWYRQAPGKERELVAGIRSRGGSTSYADSVKGRFTISRDNAKNTVYLQMNSLKPEDTAVYYCATDTTLWYVLYDYWGQGTQVTVSS,low polyreactivity
17,QVQLVESGGGLVQAGGSLRLSSAASGITFDVNVMGWYRQAPRKERELVAAIRRGDSTDYADSVKGRFSISRDNEKNTVYLQMKSLKPEDTAVYYCAADDSGYELRAYTWPYFGYDYWGQGTQVTVSS,low polyreactivity
18,QVQLVESGGGLVQAGGSLRISSAASGSTNYPNAMGWYRQAPGKERELVAVIRWSGGSTYYADSVKGRFTISRDNAKNTVYLQMNSLKPEDTAVYYCNADFYRVAYLRRYSHFDYWGQGTQVTVSS,high polyreactivity
19,QVQLQESRGGLVQAGGSLRLSCAASGYISLAQTIGWYRQAPGKEREFVASIALGSSTYYTDSVKGSFTISRDNAKTTVYLQMISLQAEDTAVYYCAARVGASYAHDFWGQGTQVTVSS,low polyreactivity
20,QVQLVESGGGLVQAGGSLRLSCAASGYIFPYYTMGWYRQAPGKERELVAAITIGGSTYYADSVKGRFTISRDNAKNTVYFQMNSLKPVDTAVYYCAARSRYYDTRFDYWGQGTQVTVSS,low polyreactivity
21,QVQLVESGGGLVQAGGSLRLSCAASGRIFYFNVMGWYRQAPGKVRELVAAIRWSVGTTYYADSVKGRFTISRDNAKNTVYLQMNSLKPEDTAVYYCAARRSFPLGTARMYYWGQGTQVTVSS,high polyreactivity
